Common to all, as to assay: Km for hydrolysis of fluorogenic substrate Arg2-2NA
Substrate in data set [1]: N=C(N)NCCC[C@H](NC(=O)[C@@H](N)CCCNC(=N)N)C(=O)Nc1ccc2ccccc2c1
The class given is biochemical, yeast (Saccharomyces cerevisiae). Conditions: other: pH 7.4 (20 mM Tris–HCl buffer), 25 °C, initial reaction rates, yeast DPP III.

Substrate in data set [2]: N=C(N)NCCC[C@H](NC(=O)[C@@H](N)CCCNC(=N)N)C(=O)Nc1ccc2ccccc2c1
The class given is biochemical. The conditions noted are these: other: pH 7.4 (20 mM Tris–HCl buffer), 25 °C, initial reaction rates.

Substrate in data set [3]: N=C(N)NCCC[C@H](NC(=O)[C@@H](N)CCCNC(=N)N)C(=O)Nc1ccc2ccccc2c1
In kind it is biochemical, Bacteroides thetaiotaomicron. The conditions noted are these: other: pH 7.4 (20 mM Tris–HCl buffer), 25 °C, initial reaction rates, B. thetaiotaomicron DPP III.

B1: yeast DPP III (Saccharomyces cerevisiae S288C) (protein)
chain: MSHFFADHDAPLSMLSVKTEYFPQLTDKEQKYAHFMSKASHAGSRVVMRQVSHESEPIFDLILAIHSKLNGKYPEDDITQKQQTGLYLEYVSQFLSNLGNFKSFGDTKFIPRCEVKFFKQLLELAKINPCSSPLTLSPVDVNHEFTSHHLFSTINELIDIGIYHVEEKAALLGFPSQGYTSAYYLGLPVTPEDMALLKEQLFAELAILPENTRINKVGENSFQIWVASENVKNQITETYPSGQITLSNAVTKVEFIFGDHSREMRLVASYLKEAQKFAANDTQKAMLQEYINHFVTGSSQAHKEAQKLWVKDISPVIETNIGFIETYREPSGIIGEFESLVAIQNKERTAKFSSLVNNAEEFISLLPWSKDYEKPIFNPPDFTSLEVLTFTGSGIPAGINIPNYDDVRLKIGFKNVSLGNILSAAAKSSSKHPPSFISQEDRPIFEKYQSDSFEVQVGIHELLGHGSGKLLTEFTDGFNFDKENPPLGLDGKPVSTYYKVGETWGSKFGQLAGPFEECRAEVIAMFLLTNKKILDIFGFHDVESQDKVIYAGYLQMARAGLLALEYWNPKTGKWGQPHMQARFSIMKTFMKHSTDKNFLKLEMNSTNDDFAIKLDKSLIKTAGHECVKDYLKHLHVYKCSGDVEQGSKYFIDRSTVTPDLASLRDIVLSKRLPRRQFIQSNSYIDDNNKVTLKEYDETPQGMLQSFLDREL
The term Km denotes the concentration of substrate that gives half-maximal velocity. B1: the Michaelis-Menten constant (Km) in data set [1] came to 12 µM.

B2: Physcomitrella patens DPP III (Physcomitrium patens) (protein)
chain: MEGFQEEFSLGECLDVLTAAGLRTGDVKKRHLVHADGDYHRAVHVWLFVESTQELVLQKRADCKDSWPGLWDISSAGHISAGDTSLLTARRELQEELGITLPADAFEFLFDYLQECVINGGKYINNEYNDVYLVTLVDHIPVEAFTLQETEVSAVKYMKWQDYEDAVRKEDSSYVPCDVDGGYSALFSALRRRYEVDTSAKLEELQMHINRYVPVEIHGETTGLSKGDLLALSDTIRAAKLLDRIFLEQEWATNPALKDSLQAASGKSELDRLKFAYYLINKSPWSILDENDAFLTTADSAIQIAEGAVDESVTWGGKVRYRAAFPVEKAPGANFYPVDMDKEEFQAWKDGLDKGQQADATSFFTTIRRSGDIHDADGAKVHDLKIVPYSKEYATILKEASYLLHKAGDSAENPSLKRLLKAKADAFLSNDYYESDIAWMELDSPLDVTIGPYETYEDGLFGYKATFEAFIGIRDDEATQRLKLFSHNLQEMEDNLPMDDEYKSKTVTFSPIRVIQLLYNSGDVKGPQTVAFNLPNDDRIVKERGTAMVMLKNISQAKFDYILLPIANVCVEASQRGAVDFDSFFTHTICHECCHGIGPHNIVTPDGRASTVRLELQEVYSAIEEAKADIVGLWALHFLVDKGLLPRSLENTMYVSFLAGCFRSIRFGLEEAHGKGQALQFNFILEKGGFSYHPDGTFSVDYTKVRQCVEDLSRLILTIEAKGDKAGAEALLAKYAALTPQLQQSFDALQDVQVPVDIFPTFKLLDDIKL
In the case of B2, the Michaelis-Menten constant (Km) in data set [2] (Physcomitrella patens DPP III) is 23.8 µM.

B3: B. thetaiotaomicron DPP III (Bacteroides thetaiotaomicron VPI-5482) (protein)
chain: MAVTATILASCGGAKTTTAEADKFDYTVEQFADLQILRYKVPEFETLTLKQKELVYYLTQAALEGRDILFDQNGKYNLRIRRMLEAVYTNYKGDKSAPDFKNMEVYLKRVWFSNGIHHHYGMEKFVPGFSQDFLKQAVLGTDAQLLPLSEGQTAEQLCDELFPVMFDPAILAKRVNQADGEDLVLTSACNYYDGVTQQEAESFYGAMKDPKDETPVSYGLNSRLVKEDGKIQEKVWKVGGLYTQAIEKIVYWLKKAETVAENDAQKAVISKLIQFYETGSLKDFDEYAILWVKDLDSRIDFVNGFTESYGDPLGVKASWESLVNFKDLDATHRTEIISSNAQWFEDHSPVDKSFKKEKVKGVSAKVITAAILAGDLYPATAIGINLPNANWIRAHHGSKSVTIGNITDAYNKAAHGNGFNEEFVCNDEERQRIDQYGDLTGELHTDLHECLGHGSGKLLPGVDPDALKAYGSTIEEARADLFGLYYVADPKLVELKLVPDAEAYKAEYYTFLMNGLMTQLVRIEPGNNIEEAHMRNRQLIARWVFEKGAPDKVVEMVKKDGKTYVVVNDYEKVRQLFGELLAEIQRIKSTGDFEGARTLVENYAVKVDPALHAEVLARYKKLNLAPYKGFINPVYELVTDKDGNITDVTVSYNEDYVEQMLRYSKDYSPLPSVNN
Regarding B3, the Km in data set [3] was 0.8 µM.

B4: human DPP III (Homo sapiens) (protein)
chain: ADTQYILPNDIGVSSLDCREAFRLLSPTERLYAYHLSRAAWYGGLAVLLQTSPEAPYIYALLSRLFRAQDPDQLRQHALAEGLTEEEYQAFLVYAAGVYSNMGNYKSFGDTKFVPNLPKEKLERVILGSEAAQQHPEEVRGLWQTCGELMFSLEPRLRHLGLGKEGITTYFSGNCTMEDAKLAQDFLDSQNLSAYNTRLFKEVDGEGKPYYEVRLASVLGSEPSLDSEVTSKLKSYEFRGSPFQVTRGDYAPILQKVVEQLEKAKAYAANSHQGQMLAQYIESFTQGSIEAHKRGSRFWIQDKGPIVESYIGFIESYRDPFGSRGEFEGFVAVVNKAMSAKFERLVASAEQLLKELPWPPTFEKDKFLTPDFTSLDVLTFAGSGIPAGINIPNYDDLRQTEGFKNVSLGNVLAVAYATQREKLTFLEEDDKDLYILWKGPSFDVQVGLHELLGHGSGKLFVQDEKGAFNFDQETVINPETGEQIQSWYRSGETWDSKFSTIASSYEECRAESVGLYLCLHPQVLEIFGFEGADAEDVIYVNWLNMVRAGLLALEFYTPEAFNWRQAHMQARFVILRVLLEAGEGLVTITPTTGSDGRPDARVRLDRSKIRSVGKPALERFLRRLQVLKSTGDVAGGRALYEGYATVTDAPPECFLTLRDTVLLRKESRKLIVQPNTRLEGSDVQLLEYEASAAGLIRSFSERFPEDGPELEEILTQLATADARFWKGPSEAPSGQA
In the case of B4, the Km in data set [2] (human DPP III) came to 6.0 µM.

B5: Porphyromonas gingivalis DPP III (Porphyromonas gingivalis W83) (protein)
chain: MTKETTQHRSGERIARFADIEVLSYRADLFGTLTPKQRMLCYHLSEAALRGRDITTIQNCRYNLWVRSLMERIYTHLSKSERTDDFALLEEYLFCIWFANGIHHHYSGAKFIARFSPGFLRAALREAGVELEPEEQVLLERVLYDTDFLPKQTEQSGEEDIIKASSVNFYAPGITRAEAESHYKNLIEALPENEKSCPPSFGLNTRLIRSTSGELKDEVCCIDGLYGPAIEAVVASLEAAIPYTENEEQAACIRLLCDYYRTGDIRLYDRFCIRWVENNRTRIDFINGFTEVYADPIGIHGSWEGLVHMQDEEAGRRTRIISEHAGWFEAHSPIDARFRKKNPHGISATVVNVLTIAGDSYPATPIGINLPNADWIRAEHGSKSVTIDNITDAYNHAARGTGLYEEFIPDEEVRRHVELHADLTDSLHTDLHECLGHGSGQLLPGVPGDALGEHASTLEETRADLFALYFLADPKMIELGLLTDPDAYKANYYKYMLNGLMTQLVRIKRGEEIEEAHMRNRALIARYVLEHAERPGAMSLVCEEGKTALVIKDYEAVRAIIAGLLTEVQRIKSEGDYTAGKALVERYAVHVDPLLHEEVLTRYAKLDIAPYKGFVNPRLRPVYNSEGRLTDATIEYTEGYAEQMLRYSAEYSFLPTDSPLLQEARRLRSHLRRAMDGVLSASMREKGLHYGINFGVTREHLLRLARTADASAPLADYLWRRDVRETKILATMIFPAEELTHEQATRLLREADNVELREQLTANLLERMPEAIRSIGRWIESKETTPDMMTGVLTLAARLFTRGIFPEDVPAEKLLTLAILHLSDEEQKAELRRASALLLKRYGRGSAERTKKVLCLLPESSQDTAPVLYELCEDIRFELDFYPKDE
With B5, in data set [2] (Porphyromonas gingivalis DPP III), the Km amounted to 0.3 µM.

B6: Caldithrix abyssi DPP III (Caldithrix abyssi DSM 13497) (protein)
chain: MKRILLVLLTLVFLGAIACQKKEENKTEMVKLKRMIAQFAPTEIKYDHSLLDERKQKVVENLYRAAKIMDEIFLDQVYSKNFEIREQLRASSDPLDQLRLEYFTIMFGPFDRLNHDKPFIGNTPKPKGANFYPPDMTREEFENWLKAHPEDEAAFTSEFTVIRRQDGKLVAIPYSEYYKEYLTRAADYLKKAAEFADNPSLKKYLQLRAEAFLNNDYYESDLAWMDLNDHTIEVVIGPYEVYEDKLFNYKAAFEAFITLRDPVESAKLKKFVGYLDEMEKNLPIPDAYKNFNRGSESPMVVVQEVFSAGDTKAGVQTLAFNLPNDERVREAKGSKKVMLKNIHEAKFDKLLKPIAEKVLFAEQLPLVTFEGFFNHTLMHEISHGLGPGKIVLNGRQTEVKKELKETYSSIEECKADVLGMYNNLFMIEKGVYPPEFEKQIYVTFLAGIFRTIRFGINEAHGAGNAVIFNYLLEKGAYQFDPAAHRVKVNFEKIKDGVRDLANKVLTIQAQGDYMAAKNLLETYAVESEPIMIMRARLQELPVDIKPIFQIEKELGNSN
For the protein B6, the Michaelis-Menten constant (Km) in data set [2] (Caldithrix abyssi DPP III) was 15.9 µM.

For the origin of these results see article PMC9079729, “Conservation of the conformational dynamics and ligand binding within M49 enzyme family” (RSC Advances, 2018).
